Assay results taken from PMC2291454, “Functional characterisation of the TSC1–TSC2 complex to assess multiple TSC2 variants identified in single families affected by tuberous sclerosis complex” (BMC Medical Genetics, 2008).

T1: TSC1 (human, UniProt Q92574 1-1164)
T1 sequence (looked up): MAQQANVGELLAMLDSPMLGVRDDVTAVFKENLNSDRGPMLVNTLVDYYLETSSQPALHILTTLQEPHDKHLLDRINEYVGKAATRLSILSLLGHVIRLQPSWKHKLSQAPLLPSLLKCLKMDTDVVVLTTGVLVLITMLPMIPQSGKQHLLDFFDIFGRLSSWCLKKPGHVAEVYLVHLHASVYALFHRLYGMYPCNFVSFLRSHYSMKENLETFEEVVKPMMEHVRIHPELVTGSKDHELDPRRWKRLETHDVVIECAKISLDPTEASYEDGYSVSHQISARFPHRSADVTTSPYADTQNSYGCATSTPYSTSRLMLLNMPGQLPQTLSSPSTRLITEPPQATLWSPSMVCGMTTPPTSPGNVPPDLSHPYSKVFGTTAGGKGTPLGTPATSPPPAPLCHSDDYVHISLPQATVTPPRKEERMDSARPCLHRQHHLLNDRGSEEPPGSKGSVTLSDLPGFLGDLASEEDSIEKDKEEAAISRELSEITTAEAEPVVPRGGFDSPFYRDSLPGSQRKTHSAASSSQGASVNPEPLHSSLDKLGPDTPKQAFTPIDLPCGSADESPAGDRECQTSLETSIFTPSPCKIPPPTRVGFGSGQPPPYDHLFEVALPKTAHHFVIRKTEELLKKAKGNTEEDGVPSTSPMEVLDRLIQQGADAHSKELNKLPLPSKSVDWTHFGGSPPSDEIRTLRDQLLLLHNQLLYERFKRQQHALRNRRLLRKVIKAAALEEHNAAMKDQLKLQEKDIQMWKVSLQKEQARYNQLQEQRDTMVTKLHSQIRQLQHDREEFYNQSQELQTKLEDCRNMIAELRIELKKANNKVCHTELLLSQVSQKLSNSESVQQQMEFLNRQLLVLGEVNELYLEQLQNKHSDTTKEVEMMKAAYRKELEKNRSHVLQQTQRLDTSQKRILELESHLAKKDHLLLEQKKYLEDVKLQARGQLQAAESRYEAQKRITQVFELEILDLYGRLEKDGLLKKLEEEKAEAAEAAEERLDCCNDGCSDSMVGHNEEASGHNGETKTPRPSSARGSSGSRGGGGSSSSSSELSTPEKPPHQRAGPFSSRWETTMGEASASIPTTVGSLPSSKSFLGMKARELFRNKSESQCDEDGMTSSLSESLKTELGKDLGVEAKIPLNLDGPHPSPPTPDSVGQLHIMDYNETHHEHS


Molecular target: T1, TSC1
Assay: cell-based or functional assay

in vitro rheb GAP activity of the immunoprecipitated TSC1–TSC2 complex: rheb-bound GDP/GTP ratio after 90 minutes	in vitro rheb GAP activity of the immunoprecipitated TSC1–TSC2 variant complex: rheb-bound GDP/GTP ratio after 90 minutes	Binder
1.4		wild-type TSC2 (natural protein) not shown
	0.9	TSC2 I820del variant (natural protein) not shown
